Columns and labels:
[1] = target: Flag-tagged nsp8 of SARS-CoV-2 (SARS-CoV-2) (UniProt P0DTD1); assay: co-IP
[2] = target: Flag-tagged nsp7 of SARS-CoV-2 (SARS-CoV-2) (UniProt P0DTD1); assay: co-IP

| Substance | decrease in co-precipitated complex against wild type [1] [%] | decrease in co-precipitated complex against wild type [2] [%] | increase in co-precipitated complex against wild type [1] [fold] | increase in co-precipitated complex against wild type [2] [fold] |
| --- | --- | --- | --- | --- |
| HA-tagged nsp12 T20A mutant (natural protein) | 33 | 33 |  |  |
| HA-tagged nsp12 T20E mutant (natural protein) |  |  | 2 | 2 |
